Measurements as given in patent US11306331B2, “Processes for the production of hydroxycinnamic acids using polypeptides having tyrosine ammonia lyase activity” (CysBio ApS, priority 2014, dated 2022).

Assays:
[1] = substrate: N[C@@H](Cc1ccccc1)C(=O)O; assay: In vitro kinetics of purified His-tagged SeSam8 (tyrosine/phenylalanine ammonia lyase activity, absorbance at 315/295 nm); assay type: biochemical, Saccharothrix espanaensis; conditions: other: SeSam8, 30° C, 1.56 μM to 200 μM tyrosine or 193 μM to 25 mM phenylalanine, pH 7.5
Description: (§1) Four of the enzymes were further purified by His-tag purification as follows. A DNA linker (5′ phosphorylated oligonucleotides CBJP559 and CBJP560, Table 5) was inserted in place of the sequence between the NdeI and BgIII site in plasmid pCDFDuet-1. This would result in the addition of the amino acids MAHHHHHHENLYFQ (SEQ ID NO: 11) to the N-terminal end of the polypeptides. The resulting plasmid was amplified with primers CBJP575 and CBJP576 (table 5) and the genes were amplified and combined using the Gibson reaction (New England Biolabs). The PCR amplification used the same reverse primers as in example 1, but the forward primers matching the His-tag site of the linker (Table 5). Plasmids carrying the genes (e.g. FjXAL, FIG. 4) were transformed into electrocompetent E. coli BL21(DE3)pLysS cells (Life Technologies) and selected on LB plates containing 50 ug/mL streptomycin.
(§2) Strains expressing His-tagged versions of the enzymes were grown in LB media overnight at 37° C. and diluted into fresh LB media with 1 mM IPTG and growth was propagated overnight (approximately 18 h) at 30° C. Cells were harvested by centrifugation at 8000 rpm for 8 minutes, and disrupted by shearing into a buffer (50 mM Tris-HCl, 10 mM imidazole, 500 mM NaCl, 10% glycerol, pH 7.5). The homogenate was clarified by centrifugation at 10000 g for 10 min at 4° C., and the supernatant was loaded onto Ni2+-NTA resin column on an Äkta Pure system connected to a F9-C fraction collector (GE). Finally the fractions containing the purified polypeptide was dialyzed overnight against a buffer containing 50 mM Tris-HCl pH 7.5, 150 mM NaCl and 10% glycerol, flash-frozen in liquid nitrogen and stored at −80° C.
(§3) Enzymatic assays were performed in 200 μL volumes in wells in a UV transparent 96-well plate, by following the increase in absorbance at 315 nm (pHCA) or 295 nm (CA). […] The enzymatic activity was calculated as U/g, where U is defined as μmol substrate converted per minute.

[2] = substrate: N[C@@H](Cc1ccc(O)cc1)C(=O)O; assay: as above; assay type: biochemical, Saccharothrix espanaensis; conditions: other: SeSam8, 30° C, 1.56 μM to 200 μM tyrosine or 193 μM to 25 mM phenylalanine, pH 7.5
Description: as §1, §2, §3

[3] = substrate: N[C@@H](Cc1ccccc1)C(=O)O; assay: In vitro kinetics of purified His-tagged HaXAL1 (tyrosine/phenylalanine ammonia lyase activity, absorbance at 315/295 nm); assay type: biochemical, Herpetosiphon aurantiacus; conditions: other: HaXAL1, 30° C, 1.56 μM to 200 μM tyrosine or 193 μM to 25 mM phenylalanine, pH 7.5
Protocol: (§4) The tyrosine ammonia lyase activity may for instance be determined in accordance to the following method: Enzymatic assays are performed in 200 μL volumes in wells in a UV transparent 96-well plate, by following the increase in absorbance at 315 nm (pHCA) using spectrophotometry or HPLC with UV detection. The reaction mixtures contain 2 μg of purified protein and are initiated by adding 1 mM tyrosine or 6 mM after equilibration to 30° C. The enzymatic activity is calculated as U/g, where U is defined as μmol substrate converted per minute. Negative controls contain no purified protein. Kinetic constants Km and vmax are determined from assays containing 1.56 μM to 200 μM tyrosine. See also Kyndt et al. (2002).
as §1, §2, §3

[4] = substrate: N[C@@H](Cc1ccc(O)cc1)C(=O)O; assay: as above; assay type: biochemical, Herpetosiphon aurantiacus; conditions: other: HaXAL1, 30° C, 1.56 μM to 200 μM tyrosine or 193 μM to 25 mM phenylalanine, pH 7.5
Protocol: as §4, §1, §2, §3

[5] = test system: E. coli BL21(DE3)pLysS cells; assay: Specific production of pHCA and CA by E. coli expressing TAL/PAL enzymes; assay type: cell-based, Escherichia coli; conditions: 24 h after supplementation, +/- standard deviation
Protocol: Plasmids carrying the genes were transformed into electrocompetent E. coli BL21(DE3)pLysS cells (Life Technologies) and selected on LBplates containing 50 ug/mL streptomycin. The strains were grown in M9 minimal media containing glucose as a carbon source, and expression was induced by adding 1 mM IPTG at an optical density at 600 nm of 0.6. After three hours of growth at 30° C. the cultures were supplemented with 2 mM tyrosine, phenylalanine or histidine. After further 24 hours, samples were withdrawn for determination of the optical density at 600 nm and for the isolation of the supernatant.
The concentration of pHCA and CA in the supernatant was quantified by high performance (HPLC) and compared to chemical standards. HPLC was done on a Thermo setup using a HS-F5 column and mobile phases: 5 mM ammonium formate pH 4.0 (A) and acetonitrile (B) at 1.5 mL min-1, using a gradient elution starting at 5% B. From 0.5 min after injection to 7 min, the fraction of B increased linearly from 5% to 60%, and between 9.5 min and 9.6 the fraction of B decreased back to 5%, and remaining there until 12m pHCA and CA were quantified by measuring absorbance at 333 nm and 277 nm, respectively. The production was tested without addition of precursors or the addition of either phenylalanine or tyrosine to the growth medium.
The specific production was calculated as micromolar (μM) concentration per unit of optical density of the culture at 600 nm, and standard deviations were calculated based on triplicate experiments. HaXAL1, HaXAL2 and FjXAL are the most specific enzymes and those that reach the highest yields.

[6] = test system: Saccharomyces cerevisiae CEN.PK102-5B; assay: Specific production of pHCA and CA by S. cerevisiae expressing TAL enzymes; assay type: cell-based; conditions: 72 h, 30° C., +/- standard deviation
Description: A number of the previously characterized enzymes were characterized when expressed in Saccharomyces cerevisiae. Genes encoding HaXAL1 and FjXAL were synthesized with codon optimization for S. cerevisiae available by GeneArt (Life Technologies), and were named HaXAL1 Sc and FjXALSc. Genes were amplified using the oligonucleotide (refer to specific name) shown in Table 6, and inserted by uracil-excision into the vector pCfB132 together with the PPGK1 promoter amplified by primers PPGK1_fw and PPGK1_rv (Jensen et al., 2014). The finished plasmids were transformed into Saccharomyces cerevisiae CEN.PK102-5B (MAT a ura3-52 his3Δ1 leu2-3/112 MAL2-8c SUC2) using a standard lithium acetate transformation protocol and selected for on synthetic drop-out media plates lacking uracil.
Cells were grown in SC medium without uracil, and diluted into Delft medium or Feed-In-Time (FIT) medium (m2p-labs) supplemented with leucine and histidine. After 72 h of incubation at 30° C. with shaking, samples were taken for the analysis of optical density at 600 nm and for clarification of the supernatant, which was analyzed by HPLC as described in example 1. The specific production was calculated as micromolar (μM) concentration per unit of optical density of the culture at 600 nm and is shown in Table 4.

[7] = test system: E. coli BL21(DE3)pLysS cells; assay: Titers of hydroxycinnamic acids in supernatants of E. coli cultures expressing TAL homologs; assay type: cell-based, Escherichia coli; conditions: 16 hours, 37° C., duplicate
Protocol: E. coli strains described in Example 1 were used. M9 medium with 0.2% glucose and 0.5 mM IPTG also containing either tyrosine (204 μM), L-dopa (194 μM) or 3-O-methyldopa (262 μM) was transferred as 3-mL aliquots into a 24-well deep-well plate (Enzyscreen). Aliquots were taken for HPLC before the wells were inoculated with 200 μL of overnight cultures of the strains. The plates were placed at 37° C. with shaking for 16 hours. Samples of the supernatant were withdrawn after two rounds of centrifugation. The samples were subjected to HPLC along with chemical standards as described in Example 1. p-coumaric acid, caffeic acid and ferulic acid was measured by absorbance at 333 nm. Tyrosine, L-dopa and 3-O-methyldopa were measured by fluorescence (excitation at 274 nm, emission at 303 nm).
There was no measurable product in the medium before inoculation.

[8] = substrate: N[C@@H](Cc1ccccc1)C(=O)O; assay: purified protein, by the assay type; conditions: other: RsTAL, 30° C, 1.56 μM to 200 μM tyrosine or 193 μM to 25 mM phenylalanine, pH 7.5
Protocol: (§5) Enzymatic assays were performed in 200 μL volumes in wells in a UV transparent 96-well plate, by following the increase in absorbance at 315 nm (pHCA) or 295 nm (CA). The reaction mixtures contained 2 μg of purified protein and were initiated by adding 1 mM tyrosine or 6 mM after equilibration to 30° C. The enzymatic activity was calculated as U/g, where U is defined as μmol substrate converted per minute.

[9] = substrate: N[C@@H](Cc1ccc(O)cc1)C(=O)O; assay: purified protein, by the assay type; conditions: other: RsTAL, 30° C, 1.56 μM to 200 μM tyrosine or 193 μM to 25 mM phenylalanine, pH 7.5
Protocol: as §5

B1: Saccharothrix espanaensis SeSam8 (Protein GI 433607630), His-tagged (N-terminal tag SEQ ID NO: 11) (Saccharothrix espanaensis) (protein)
chain: MTQVVERQADRLSSREYLARVVRSAGWDAGLTSCTDEEIVRMGASARTIEEYLKSDKPIYGLTQGFGPLVLFDADSELEQGGSLISHLGTGQGAPLAPEVSRLILWLRIQNMRKGYSAVSPVFWQKLADLWNKGFTPAIPRHGTVSASGDLQPLAHAALAFTGVGEAWTRDADGRWSTVPAVDALAALGAEPFDWPVREALAFVNGTGASLAVAVLNHRSALRLVRACAVLSARLATLLGANPEHYDVGHGVARGQVGQLTAAEWIRQGLPRGMVRDGSRPLQEPYSLRCAPQVLGAVLDQLDGAGDVLAREVDGCQDNPITYEGELLHGGNFHAMPVGFASDQIGLAMHMAAYLAERQLGLLVSPVTNGDLPPMLTPRAGRGAGLAGVQISATSFVSRIRQLVFPASLTTLPTNGWNQDHVPMALNGANSVFEALELGWLTVGSLAVGVAQLAAMTGHAAEGVWAELAGICPPLDADRPLGAEVRAARDLLSAHADQLLVDEADGKDFG
- Km [1]: 2200 µM
- kcat [1]: 0.00883 s⁻¹
- kcat/Km [1]: 4.03 M⁻¹ s⁻¹
- Km [2]: 4.8 µM

B2: Herpetosiphon aurantiacus HaXAL1 tyrosine ammonia lyase (Protein GI 159898407), SEQ ID NO: 2, His-tagged (N-terminal tag SEQ ID NO: 11) (Herpetosiphon … (protein)
chain: MSTTLILTGEGLGIDDVVRVARHQDRVELTTDPAILAQIEASCAYINQAVKEHQPVYGVTTGFGGMANVIISPEEAAELQNNAIWYHKTGAGKLLPFTDVRAAMLLRANSHMRGASGIRLEIIQRMVTFLNANVTPHVREFGSIGASGDLVPLISITGALLGTDQAFMVDFNGETLDCISALERLGLPRLRLQPKEGLAMMNGTSVMTGIAANCVHDARILLALALEAHALMIQGLQGTNQSFHPFIHRHKPHTGQVWAADHMLELLQGSQLSRNELDGSHDYRDGDLIQDRYSLRCLPQFLGPIIDGMAFISHHLRVEINSANDNPLIDTASAASYHGGNFLGQYIGVGMDQLRYYMGLMAKHLDVQIALLVSPQFNNGLPASLVGNIQRKVNMGLKGLQLTANSIMPILTFLGNSLADRFPTHAEQFNQNINSQGFGSANLARQTIQTLQQYIAITLMFGVQAVDLRTHKLAGHYNAAELLSPLTAKIYHAVRSIVKHPPSPERPYIWNDDEQVLEAHISALAHDIANDGSLVSAVEQTLSGLRSIILFR
- Km [3]: 22000 µM
- kcat [3]: 0.128 s⁻¹
- kcat/Km [3]: 6.1 M⁻¹ s⁻¹
- Km [4]: 16 µM
- Specific production of CA ([5]; M9 + Phe (2 mM)): 1.1 ± 0.2 μM OD600-1
- Specific production of pHCA ([5]; M9 + Phe (2 mM)): 36 ± 14 μM OD600-1
- Specific production of CA ([5]; M9 + Tyr (2 mM)): 0 ± 0 μM OD600-1
- Specific production of pHCA ([5]; M9 + Tyr (2 mM)): 130 ± 26 μM OD600-1
- Specific production of CA ([6]; Delft + Tyr (10 mM)): 0 ± 0 μM OD600-1
- Specific production of pHCA ([6]; Delft + Tyr (10 mM)): 110 ± 15 μM OD600-1
- Specific production of CA ([6]; Delft medium): 0 ± 0 μM OD600-1
- Specific production of pHCA ([6]; Delft medium): 31 ± 3.2 μM OD600-1
- Specific production of CA ([6]; FIT + Tyr (10 mM)): 0 ± 0 μM OD600-1
- Specific production of pHCA ([6]; FIT + Tyr (10 mM)): 120 ± 10 μM OD600-1
- Specific production of CA ([6]; FIT medium): 0 ± 0 μM OD600-1
- Specific production of pHCA ([6]; FIT medium): 140 ± 13 μM OD600-1
- Titer of ferulic acid ([7]; M9 + 3-O-methyldopa (262 μM)): 0.6 ± 0.0 µM
- Titer of caffeic acid ([7]; M9 + L-dopa (194 μM)): 6.9 ± 1.3 µM
- Titer of p-coumaric acid ([7]; M9 + tyrosine (204 μM)): 81 ± 1.2 µM

B3: Rhodobacter sphaeroides RsTAL (Protein GI 126464011), His-tagged (N-terminal tag SEQ ID NO: 11) (Cereibacter sphaeroides 2.4.1) (protein)
chain: MLAMSPPKPAVELDRHIDLDEAHSVASGGARIVLAPPARDRCRASEARLGAVIREARHVYGLTTGFGPLANRLVSGENVRTLQANLVHHLASGVGPVLDWTTARAMVLARLVAIAQGASGASEGTIARLIDLLNSELAPAVPMRGTVGASGDLTPLAHMVLCLQGRGDFLDRDGTRLDGAEGLRRGRLQPLDLSHRDALALVNGTSAMTGIALVNAHACRHLGNWAVALTALLAECLGGRTEAWAAALSDLRPHPGQKDAAARLRARVDGSARVVRHVIAERRLGASDIGTEPEAGQDAYSLRCAPQVLGAGFDTLAWHDRVLTIELNAVTDNPVFPPDGSVPALHGGNFMGQHVALTSDALATAVTVLAGLAERQIARLTDERLNRGLPPFLHRGPAGLNSGFMGAQVTATALLAEMRATGPASIHSISTNAANQDVVSLGTIAARLCREKIDRWAEILAILALCLAQAAELRCGSGLDGVSPAGKKLVQALREQFPPLETDRPLGQEIAALATHLLQQSPV
- Km [8]: 2400 µM
- kcat [8]: 0.0597 s⁻¹
- kcat/Km [8]: 24.6 M⁻¹ s⁻¹
- Km [9]: 5.6 µM
